Experimental data as given in patent US20210371530A1 (Merck Sharp & Dohme, published 2021).

What was measured:
[1] = target: human PD-1 on cells (human, UniProt Q15116 25-288); experiment: cell-based or functional assay
[2] = target: T1, polyhistidine-tagged human PD-1 (hPD1-His, 98AFK) (human, UniProt Q15116 25-167, limits assumed); experiment: SPR capture format; reference Mouse 08A
T1 construct: Lot 98AFK; also called human PD1-His; Human PD-1-His; not shown: polyhistidine tag
Method: A surface plasmon resonance (SPR)-based assay utilizing capture mode was used to determine the binding kinetics and affinities of anti-PD-1 antibodies against polyhistidine-tagged human PD-1 (hPD1-His, 98AFK). Following manufacture instructions, a series S sensor chip CM5 (GE Healthcare, BR100530) was activated using an amine-coupling kit (GE Healthcare, BR100050). Either human capture kit (anti-human Fc, 25 μg/mL, GE Healthcare, BR100839) or mouse capture kit (anti-mouse Fc, 30 μg/mL, GE Healthcare, BR100838) antibody diluted in the supplied pH 5.0, 10 mM sodium acetate buffer was immobilized onto the activated surface for 7 minutes. After immobilization, surfaces were deactivated with 1M ethanolamine/HCl (pH 8.5) for 7 minutes. The final immoblization levels reached ˜8,000 resonance units (RU) for mouse capture or 12,000 RU for human capture in each of the four flow cells.
Binding kinetics were measured on a biacore T200 in HBS-EP+(0.01 M HEPES pH 7.4, 0.15 M NaCl, 3 mM EDTA, 0.05% v/v Surfactant P20) running buffer at 25° C. Antibodies were captured either on mouse or human Fc capture surfaces at 10 μL/min flow rate. Antibodies were captured on flow cells 2, 3 and 4. Flow cell 1 was used as a reference with no antibody captured. A 6-point, 2-fold serial dilutions of the analyte 98AFK (hPD1-His), starting at 20 nM, were prepared in the running buffer (HBS-EP+). Two buffer blanks were included for double referencing. Titration series were injected for 3 minutes at 50 μl/min followed by 600 seconds of dissociation. After each cycle, surfaces were regenerated with a 30 second injection of 3M MgCl2 at […] on the anti-human Fc chip or 180 seconds of 10 mM Glycine pH 1.7 at 10 μl/min on the anti-mouse Fc chip.
Sensorgram processing and data analysis were performed with Biacore T200 Evaluation Software Version 2.0.4 (GE Healthcare). […] Processed curves were globally fitted to a 1:1 binding model to determine the association rate constant, kₒₙ (M⁻¹s⁻¹, where “M” equals molar and “s” equals seconds) and the dissociation rate constant, koff (s⁻¹). These rate constants were used to calculate the equilibrium dissociation constant, KD (M)=koff/kₒₙ.

[3] = target: T1, polyhistidine-tagged human PD-1 …; experiment: SPR solution affinity; reference Humanized 08A IgG4 S61N (98AIO)
Method: The titration series were incubated for 16-24 hours to reach equilibrium at room temperature. The unbound sites were measured using a BIAcore chip immobilized with antigen in a competition mode where SPR signal detected corresponded to unbound antibody.
The titration series following >16 hr. incubation were injected over the sensor chip immobilized with hPD1-His (above). Free, unbound antibodies concentrations were measured as proportional to RU after 120 seconds (for 500 pM mAb series) or 400 seconds (for 100 pM mAb series) of injection at 10 μL/min. After each cycle, surfaces were regenerated with a 30 second injection of 1:1 mixture of 3M MgCl2 and pH 2.0 10 mM glycine at 30 μL/min
Data analyses were performed using KINEXA Pro Version 1.02 (Sapydyne) where RUs were normalized and plotted against concentrations.

T1 sequence (Q15116 25-167 limits assumed): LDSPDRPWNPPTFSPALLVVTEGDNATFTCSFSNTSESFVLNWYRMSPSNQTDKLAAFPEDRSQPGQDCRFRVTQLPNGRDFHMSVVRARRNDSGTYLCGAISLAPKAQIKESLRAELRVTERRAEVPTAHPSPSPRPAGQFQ
human PD-1 on cells, sequence (Q15116 25-288): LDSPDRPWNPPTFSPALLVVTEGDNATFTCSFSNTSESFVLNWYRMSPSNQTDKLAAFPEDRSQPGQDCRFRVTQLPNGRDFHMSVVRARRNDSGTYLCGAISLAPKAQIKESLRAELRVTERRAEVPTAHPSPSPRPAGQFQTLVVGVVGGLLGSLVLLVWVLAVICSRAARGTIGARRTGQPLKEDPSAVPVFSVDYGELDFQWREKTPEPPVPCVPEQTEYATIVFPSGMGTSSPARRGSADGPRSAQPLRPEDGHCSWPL

Row | Binder | AVG EC50 (nM), IL-2 luciferase reporter, Jurkat.hPD-1.IL2luc + THP-1.PD-L1 assay [1] [nM] | KD (REF) / KD [2] [ratio] | KD (REF) / KD [3] [ratio]
1 | Anti-PD-1/LAG3 bispecific antibody 90ASU (bispecific antibody, human IgG1, kappa, L234A L235A) heavy 1: not shown light 1: DIVMTQTPLSLSVTPGQPASISCRASKSVSTSGFSYLHWYLQKPGQPPQLLIFLASNLESGVPDRFSGSGSGTDFTLKISRVEAEDVGVYYCQHSWELPLTFGQGTKLEIKRTVAAPSVFIFPPSDERLKSGTASVVCLLNNFYPREAKVQWKVDNALQSGNSQESVTEQDSKDSTYSLSSRLTLSKADYEKHKVYACEVTHQGLSSPVTKSFNRGEC heavy 2: QMQLVQSGPEVKKPGTSVKVSCKASGYTFTDYNVDWVRQARGQRLEWIGDINPNDGGTIYAQKFQERVTITVDKSTSTAYMELSSLRSEDTAVYYCARNYRWFGAMDHWGQGTTVTVSSASTKGPSVFPLAPSSKSTSGGTAALGCLVKDYFPEPVTVSWNSGALTSGVHTFPAVLQSSGLYKLSSVVTVPSSSLGTQTYICNVNHKPSNTKVDKKVEPKSCDKTHTCPPCPAPEAAGGPSVFLFPPKPKDTLMISRTPEVTCVVVSVSHEDPEVKFNWYVDGVEVHNAKTKPREEQYNSTYRVVSVLTVLHQDWLNGKEYKCKVSNKALPAPIEKTISKAKGQPREPQVYVLPPSRDELTKNQVSLLCLVKGFYPSDIAVEWESNGQPENNYLTWPPVLDSDGSFFLYSKLTVDKSRWQQGNVFSCSVMHEALHNHYTQKSLSLSPG light 2: DIVMTQTPLSLSVTPGQPASISCKASQSLDYEGDSDMNWYLQKPGQPPQLLIYGASNLESGVPDRFSGSGSGTDFTLKISRVEAEDVGVYYCQQSTEDPRTFGGGTKVEIKRTVAAPSVFIFPPSDEELKSGTATVVCLLNNFYPREAKVQWKVDNALQSGNSQESVTEQDSKDSTYSLSSYLELSKADYEKHKVYACEVTHQGLSSPVTKSFNRGEC | 2.54 | – | –
2 | Mouse 09A (antibody, mouse IgG1, kappa, V domains shown, Mouse IgG1/kappa; also called 03AFN; Mouse x [PD-1_H] mAb (clone 09A) IgG1 / Kappa) VH: QVQLQQPGAELVKPGTSVKLSCKASGYTFTNYYMYWVKQRPGQGLEWIGGINPSNGGTNFNEKFKNKATLTVDSSSSTTYMQLSSLTSEDSAVYYCTRRDYRFDMGFDYWGQGTTLTVSS VL: DIVLTQSPASLAVSLGQRAAISCRASKGVSTSGYSYLHWYQQKPGQSPKLLIYLASYLESGVPARFSGSGSGTDFTLNIHPVEEEDAATYYCQHSRDLPLTFGTGTKLELKR | – | 0.5 | –
3 | Mouse 08A (antibody, mouse IgG1, kappa, V domains shown, Mouse IgG1/kappa; also called 09AFF; parental mouse 08A antibody) VH: QVQLQQPGAELVKPGASVKLSCKASGYTFTSYYLYWMKQRPGQGLEWIGGVNPSNGGTNFSEKFKSKATLTVDKSSSTAYMQLSSLTSEDSAVYYCTRRDSNYDGGFDYWGQGTTLTVSS VL: DIVLTQSPTSLAVSLGQRATISCRASKSVSTSGFSYLHWYQQKPGQPPKLLIFLASNLESGVPARFSGSGSGTDFTLNIHPVEEEDAATYYCQHSWELPLTFGAGTKLELKR | – | 1 | –
4 | Mouse 08A N59A (antibody, mouse IgG1, kappa, V domains shown, also called 80AFH; Clone 1.08 N59A) VH: QVQLQQPGAELVKPGASVKLSCKASGYTFTSYYLYWMKQRPGQGLEWIGGVNPSNGGTAFSEKFKSKATLTVDKSSSTAYMQLSSLTSEDSAVYYCTRRDSNYDGGFDYWGQGTTLTVSS VL: DIVLTQSPTSLAVSLGQRATISCRASKSVSTSGFSYLHWYQQKPGQPPKLLIFLASNLESGVPARFSGSGSGTDFTLNIHPVEEEDAATYYCQHSWELPLTFGAGTKLELKR | – | 0.4 | –
5 | Mouse 08A N59E (antibody, mouse IgG1, kappa, V domains shown, also called 39AFL; Clone 1.08 N59E) VH: QVQLQQPGAELVKPGASVKLSCKASGYTFTSYYLYWMKQRPGQGLEWIGGVNPSNGGTEFSEKFKSKATLTVDKSSSTAYMQLSSLTSEDSAVYYCTRRDSNYDGGFDYWGQGTTLTVSS VL: DIVLTQSPTSLAVSLGQRATISCRASKSVSTSGFSYLHWYQQKPGQPPKLLIFLASNLESGVPARFSGSGSGTDFTLNIHPVEEEDAATYYCQHSWELPLTFGAGTKLELKR | – | 0.03 | –
6 | Mouse 08A N59Q (antibody, mouse IgG1, kappa, V domains shown, also called 38AFL; Clone 1.08 N59Q) VH: QVQLQQPGAELVKPGASVKLSCKASGYTFTSYYLYWMKQRPGQGLEWIGGVNPSNGGTQFSEKFKSKATLTVDKSSSTAYMQLSSLTSEDSAVYYCTRRDSNYDGGFDYWGQGTTLTVSS VL: DIVLTQSPTSLAVSLGQRATISCRASKSVSTSGFSYLHWYQQKPGQPPKLLIFLASNLESGVPARFSGSGSGTDFTLNIHPVEEEDAATYYCQHSWELPLTFGAGTKLELKR | – | 0.04 | –
7 | Humanized 08A IgG4 S61N (lot 98AIO) (antibody, IgG4 S228P / kappa; also called 08A/HuPD1A-11 S61N S228P corrected IgG4 / Kappa) heavy: not shown light: DIVMTQTPLSLSVTPGQPASISCRASKSVSTSGFSYLHWYLQKPGQPPQLLIFLASNLESGVPDRFSGSGSGTDFTLKISRVEAEDVGVYYCQHSWELPLTFGQGTKLEIKRTVAAPSVFIFPPSDEQLKSGTASVVCLLNNFYPREAKVQWKVDNALQSGNSQESVTEQDSKDSTYSLSSTLTLSKADYEKHKVYACEVTHQGLSSPVTKSFNRGEC | – | 4.4 | 1
8 | Humanized 08A IgG4 (antibody, V domains shown, IgG4 S228P / kappa, no CDRH2 corrections; also called 73AGG; 08A/HuPD1A-11 S228P IgG4 / Kappa) VH: EVQLVQSGAEVKKPGASVKVSCKASGYTFTSYYLYWVRQAPGQGLEWIGGVNPSNGGTNFSEKFKSRVTLTVDTSISTAYMELSRLRSDDTAVYYCTRRDSNYDGGFDYWGQGTTVTVSS VL: DIVMTQTPLSLSVTPGQPASISCRASKSVSTSGFSYLHWYLQKPGQPPQLLIFLASNLESGVPDRFSGSGSGTDFTLKISRVEAEDVGVYYCQHSWELPLTFGQGTKLEIKR | – | 1.7 | –
9 | Humanized 08A IgG4 Fab 098 G56A (antibody, V domains shown, IgG4 S228P / kappa; also called 90AVZ) VH: EVQLVQSGAEVKKPGASVKVSCKASGYTFTSYYLYWVRQAPGQGLEWIGGVNPSNAGTNFSEKFKSRVTLTVDTSISTAYMELSRLRSDDTAVYYCTRRLSHYDGGFDYWGQGTTVTVSS VL: DIVMTQTPLSLSVTPGQPASISCRASKSVSTSGFSYLHWYLQKPGQPPQLLIFLASNLESGVPDRFSGSGSGTDFTLKISRVEAEDVGVYYCQHSWELPLTFGQGTKLEIKR | – | 3 | 1.7
10 | Humanized 08A IgG4 G56A (antibody, V domains shown, IgG4 S228P / kappa; also called 89AVZ; 08A/HuPD1A-11 G56A IgG4 S228P / Kappa) VH: EVQLVQSGAEVKKPGASVKVSCKASGYTFTSYYLYWVRQAPGQGLEWIGGVNPSNAGTNFSEKFKSRVTLTVDTSISTAYMELSRLRSDDTAVYYCTRRDSNYDGGFDYWGQGTTVTVSS VL: DIVMTQTPLSLSVTPGQPASISCRASKSVSTSGFSYLHWYLQKPGQPPQLLIFLASNLESGVPDRFSGSGSGTDFTLKISRVEAEDVGVYYCQHSWELPLTFGQGTKLEIKR | – | 2.4 | 0.6
11 | Humanized 08A IgG4 S61N (lot 67AGG) (antibody, IgG4 S228P / kappa; differs from 98AIO by an HFR4 mutation; also called 08A/HuPD1A-11 S61N WT S228P IgG4 / Kappa, with HFR4 mutation) heavy: not shown light: DIVMTQTPLSLSVTPGQPASISCRASKSVSTSGFSYLHWYLQKPGQPPQLLIFLASNLESGVPDRFSGSGSGTDFTLKISRVEAEDVGVYYCQHSWELPLTFGQGTKLEIKRTVAAPSVFIFPPSDEQLKSGTASVVCLLNNFYPREAKVQWKVDNALQSGNSQESVTEQDSKDSTYSLSSTLTLSKADYEKHKVYACEVTHQGLSSPVTKSFNRGEC | – | 5.2 | –
12 | Humanized 08A IgG4 S61N G56A (antibody, V domains shown, IgG4 S228P / kappa; also called 51AQK; 08A/HuPD1A-11 S61N VH G56A IgG4 S228P / Kappa) VH: EVQLVQSGAEVKKPGASVKVSCKASGYTFTSYYLYWVRQAPGQGLEWIGGVNPSNAGTNFNEKFKSRVTLTVDTSISTAYMELSRLRSDDTAVYYCTRRDSNYDGGFDYWGQGTTVTVSS VL: DIVMTQTPLSLSVTPGQPASISCRASKSVSTSGFSYLHWYLQKPGQPPQLLIFLASNLESGVPDRFSGSGSGTDFTLKISRVEAEDVGVYYCQHSWELPLTFGQGTKLEIKR | – | 4.2 | 1
13 | Humanized 08A IgG4 S61N N55E (antibody, V domains shown, IgG4 S228P / kappa; also called 50AQK; 08A/HuPD1A-11 N55E S228P IgG4 / Kappa) VH: EVQLVQSGAEVKKPGASVKVSCKASGYTFTSYYLYWVRQAPGQGLEWIGGVNPSEGGTNFNEKFKSRVTLTVDTSISTAYMELSRLRSDDTAVYYCTRRDSNYDGGFDYWGQGTTVTVSS VL: DIVMTQTPLSLSVTPGQPASISCRASKSVSTSGFSYLHWYLQKPGQPPQLLIFLASNLESGVPDRFSGSGSGTDFTLKISRVEAEDVGVYYCQHSWELPLTFGQGTKLEIKR | – | 0.8 | –
14 | Humanized 08A IgG4 Fab 100 S61N G56A (antibody, V domains shown, also called 25AVE) VH: EVQLVQSGAEVKKPGASVKVSCKASGYTFTSYYLYWVRQAPGQGLEWIGGVNPSNAGTNFNEKFKSRVTLTVDTSISTAYMELSRLRSDDTAVYYCTRRLSHYDGGFDYWGQGTTVTVSS VL: DIVMTQTPLSLSVTPGQPASISCRASKSVSTSGFSYLHWYLQKPGQPPQLLIFLSKYRSSGVPDRFSGSGSGTDFTLKISRVEAEDVGVYYCSQAYHLPLTFGQGTKLEIKR | – | 5.7 | > 13
